Source: patent US11649275B2, “Dual agonist fusion proteins” (Duke University, priority 2018, dated 2023)

How the values were obtained:
[1] = molecular target: T1, murine β-Klotho and FGF receptor 1 (Mus musculus, UniProt P16092+Q99N32); test: ERK phosphorylation assay (FGF21 receptor agonism, HEK293 cells); assay type: cell-based; conditions: compared to native FGF21
T1 construct: expressed in transfected cells; host or cells: HEK293
Method: ERK phosphorylation assay: For quantitative evaluation of FGF21 in vitro activity, a HEK293 cell line was previously generated that stably expresses murine β-Klotho and FGF receptor 1 and thereby enables FGF21-mediated ERK1/2 phosphorylation. Cells were seeded at 5×10^4 cells/cm^2 and adhered overnight. After serum starvation for 6 h, cells were treated with serial dilutions of FGF21-containing fusion proteins or native mouse FGF21 (ProSpec-Tany, East Brunswick, N.J.) for 5 min. Cells were lysed and assessed for phospho-ERK1/2 and total ERK1/2 content using the AlphaLISA Surefire Ultra Assay Kits (PerkinElmer) and the EnSpire Alpha Plate Reader (PerkinElmer). Phospho-ERK1/2 was normalized to total ERK1/2 and fit to a three-parameter dose-response curve to determine EC50s using GraphPad Prism 8 software (La Jolla, Calif.).

db/db mice [2] = test: Short-term co-treatment pilot study, 48 h after single s.c. injection; assay type: in vivo; conditions: 48 h post-injection, 1000 nmol/kg s.c.
Method: (§1) Animals: In vivo studies were conducted in accordance with the AAALAC-accredited Duke Institutional Animal Care and Use Committee. 5-week-old B6.BKS(D)-Lepr^db/J (“db/db”) male mice were purchased from Jackson Laboratory (Bar Harbor, Me.) and maintained on a 12 h/12 h light/dark cycle with ad libitum access to food (LabDiet 5053) and water. Animals were group-housed and allowed 1-week acclimation before stratification into control and treatment groups based on baseline ambient blood glucose levels and body weights.
(§2) ELP fusion treatments: ELP fusion proteins were administered at 150-200 μM concentration via injection into the subcutaneous (s.c.) space on the hind flank. Animals received either a single s.c. injection for short-term studies or weekly s.c. injections for chronic studies. The “1:1 mixture” treatment group received a single injection containing an equimolar mixture of GLP1-ELP and ELP-FGF21, with the indicated dose referring to the dose of each respective fusion in the mixture. Vehicle control refers to PBS.
Ambient blood glucose measurements: Blood glucose levels were measured from a tail vein puncture with an AlphaTRAK 2 Blood Glucose Meter (Zoetis, Parsippany-Troy Hills, N.J.) every 24 h, 1-2 h following onset of the light cycle. […] Areas under the curve (AUCs) were calculated with GraphPad Prism 8 software using the trapezoidal rule and setting a Y=0 baseline. […]

[3] = Pharmacokinetic study of radiolabeled ELP fusion depots after s.c. injection; assay type: in vivo, mice; conditions: component of 1:1 mixed depot, 1000 nmol/kg each
Method: Pharmacokinetic studies: Tyrosine residues on GLP1-ELP, ELP-FGF21, or GLP1-ELP-FGF21 fusion proteins were reacted with Na^125I radionuclide (Perkin Elmer) using Pierce Pre-Coated Iodination Tubes (Thermo Fisher Scientific) and the indirect method for iodination. Radiolabeled protein was purified from unreacted radionuclide with Zeba Spin Desalting Columns (Thermo Fisher Scientific). Activities of radiolabeled constructs were measured with an Atomlab 400 Dose Calibrator (Biodex, Shirley, N.Y.) and correlated to protein concentration. Mice received a single s.c. injection of radiolabeled fusion, and 10 μL blood samples were collected at frequent time points from the tail vein and stored at room temperature until radioactivity quantification. Sample counts were measured at the end of the study on a Wallac Wizard 1480 Automatic Gamma Counter (Perkin Elmer). An activity vs. count standard curve was used to convert sample counts to activities, and subsequently to moles of drug.
Pharmacokinetic analysis: The maximum serum concentration (Cmax) was recorded as observed, as well as time to reach Cmax (tmax). […] Absorption half-life (t1/2, abs) was estimated from the slope of the linear regression curve. When a drug administered at an extravascular site yields a terminal half-life greater than that resulting from an i.v. bolus, the terminal half-life reflects the absorption half-life.

db/db mice [4] = test: Chronic dosing study, weekly s.c. for four weeks (GTT, % HbA1c, body weight, food intake); assay type: in vivo
Method: as §1, §2
Food Intake: For food intake studies, animals were group-housed 4 per cage, and food pellets were weighed every 1-2 days. Total cage food intake was calculated for each time increment, averaged per animal, and summed over the course of the study to yield a cumulative food intake per mouse. N=8 treatment groups were divided into 2 cages, allowing for an n=2 food intake standard error calculation.

T1 sequence (Q99N32 whole entry): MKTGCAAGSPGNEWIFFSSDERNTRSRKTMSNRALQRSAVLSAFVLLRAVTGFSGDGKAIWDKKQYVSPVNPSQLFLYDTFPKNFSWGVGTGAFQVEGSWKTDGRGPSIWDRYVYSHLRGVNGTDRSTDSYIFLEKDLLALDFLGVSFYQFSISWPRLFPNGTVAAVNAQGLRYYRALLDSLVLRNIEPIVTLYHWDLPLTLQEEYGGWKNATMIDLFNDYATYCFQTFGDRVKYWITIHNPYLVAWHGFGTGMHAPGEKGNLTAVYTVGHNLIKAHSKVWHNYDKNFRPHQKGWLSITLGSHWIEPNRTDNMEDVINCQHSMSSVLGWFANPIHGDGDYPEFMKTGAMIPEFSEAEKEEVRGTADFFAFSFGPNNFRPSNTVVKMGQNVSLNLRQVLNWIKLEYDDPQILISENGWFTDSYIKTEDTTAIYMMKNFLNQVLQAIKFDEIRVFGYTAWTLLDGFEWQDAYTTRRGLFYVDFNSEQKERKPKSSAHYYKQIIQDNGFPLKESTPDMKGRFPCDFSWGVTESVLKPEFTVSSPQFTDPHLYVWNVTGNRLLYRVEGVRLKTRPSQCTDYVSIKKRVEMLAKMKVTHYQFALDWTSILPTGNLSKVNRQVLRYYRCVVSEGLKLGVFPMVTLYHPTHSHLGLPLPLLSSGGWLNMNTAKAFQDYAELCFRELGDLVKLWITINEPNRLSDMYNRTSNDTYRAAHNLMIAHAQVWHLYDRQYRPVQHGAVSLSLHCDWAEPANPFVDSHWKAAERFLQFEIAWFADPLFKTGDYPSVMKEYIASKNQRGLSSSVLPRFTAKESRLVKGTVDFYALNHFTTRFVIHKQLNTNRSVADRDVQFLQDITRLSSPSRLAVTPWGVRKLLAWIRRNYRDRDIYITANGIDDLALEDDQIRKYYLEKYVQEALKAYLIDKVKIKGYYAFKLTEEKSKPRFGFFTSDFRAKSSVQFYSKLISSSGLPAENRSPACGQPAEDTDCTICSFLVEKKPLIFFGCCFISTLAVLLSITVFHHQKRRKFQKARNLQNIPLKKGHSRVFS
T1 sequence (P16092 22-822): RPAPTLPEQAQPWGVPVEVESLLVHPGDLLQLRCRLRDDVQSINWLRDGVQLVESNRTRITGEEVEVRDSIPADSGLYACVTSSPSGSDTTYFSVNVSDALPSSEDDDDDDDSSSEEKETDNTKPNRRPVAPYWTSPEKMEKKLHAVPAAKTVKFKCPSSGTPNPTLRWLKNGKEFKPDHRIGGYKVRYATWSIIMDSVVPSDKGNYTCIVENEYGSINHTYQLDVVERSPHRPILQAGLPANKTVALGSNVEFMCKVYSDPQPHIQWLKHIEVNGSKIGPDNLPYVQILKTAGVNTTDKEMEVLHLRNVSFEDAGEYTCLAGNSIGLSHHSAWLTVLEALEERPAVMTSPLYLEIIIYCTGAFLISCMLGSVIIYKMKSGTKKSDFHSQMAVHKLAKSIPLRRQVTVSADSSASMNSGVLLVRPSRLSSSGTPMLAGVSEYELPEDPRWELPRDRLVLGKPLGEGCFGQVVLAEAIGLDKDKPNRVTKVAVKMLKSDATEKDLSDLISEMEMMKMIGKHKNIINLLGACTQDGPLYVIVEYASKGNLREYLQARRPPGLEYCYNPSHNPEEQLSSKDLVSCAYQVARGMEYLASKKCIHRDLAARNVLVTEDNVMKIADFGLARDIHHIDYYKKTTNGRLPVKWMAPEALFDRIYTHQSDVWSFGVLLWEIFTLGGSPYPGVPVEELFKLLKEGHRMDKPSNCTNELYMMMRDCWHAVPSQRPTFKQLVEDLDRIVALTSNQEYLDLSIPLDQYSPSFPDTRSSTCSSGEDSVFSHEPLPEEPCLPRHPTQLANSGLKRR

B1: ELP-FGF21: Single agonist control: ELP (120 repeats, 4:1 Val:Ala) fused to mutated murine FGF21; SEQ ID NO:14 (protein)
chain: GVGVPGVGVPGAGVPGVGVPGVGVPGVGVPGVGVPGAGVPGVGVPGVGVPGVGVPGVGVPGAGVPGVGVPGVGVPGVGVPGVGVPGAGVPGVGVPGVGVPGVGVPGVGVPGAGVPGVGVPGVGVPGVGVPGVGVPGAGVPGVGVPGVGVPGVGVPGVGVPGAGVPGVGVPGVGVPGVGVPGVGVPGAGVPGVGVPGVGVPGVGVPGVGVPGAGVPGVGVPGVGVPGVGVPGVGVPGAGVPGVGVPGVGVPGVGVPGVGVPGAGVPGVGVPGVGVPGVGVPGVGVPGAGVPGVGVPGVGVPGVGVPGVGVPGAGVPGVGVPGVGVPGVGVPGVGVPGAGVPGVGVPGVGVPGVGVPGVGVPGAGVPGVGVPGVGVPGVGVPGVGVPGAGVPGVGVPGVGVPGVGVPGVGVPGAGVPGVGVPGVGVPGVGVPGVGVPGAGVPGVGVPGVGVPGVGVPGVGVPGAGVPGVGVPGVGVPGVGVPGVGVPGAGVPGVGVPGVGVPGVGVPGVGVPGAGVPGVGVPGVGVPGVGVPGVGVPGAGVPGVGVPGVGVPGVGVPGVGVPGAGVPGVGVPGVGVPGVGVPGVGVPGAGVPGVGVPGVGVPGAYPIPDSSPLLQFGGQVRQRYLYTDDDQDTEAHLEIREDGTVVGAAHRSPESLLELKALKPGVIQILGVKASRFLCQQPDGALYGSPHFDPEACSFRERLLEDGYNVYQSEAHGLPLRLPQKDSPNQDATSWGPVRFLPMPGLLHEPQDQAGFLPPEPPDVGSSDPLSMVEGSQGRSPSYASG
With B1 the “increase in FGF21 receptor EC50 on fusion of FGF21 to an ELP” value [1] was “approximately twenty-fold”, the “body weight, % change from pre-injection weight” value (db/db mice [2]) was −0.9±0.3% and the “day by which plasma levels dropped below 100 nM” value [3] was no more than 4 days. For the same molecule, the “fasting blood glucose levels” value (db/db mice [4]; 5 h fast, 3 days after the first dosing cycle, 1000 nmol/kg s.c.) was 237 ± 21 mg/dL, the “% HbA1c elevation relative to control” value (db/db mice [4]; four-week study) was “significantly reduced % HbA1c elevation relative to control” and the “effect on body weight / weight gain compared to vehicle” value (db/db mice [4]; four-week treatment period) was “did not induce a significant effect on body weight”. The “GTT AUC” value (db/db mice [4]; i.p. glucose tolerance test 3 days after the first dosing cycle) was “significantly decreased GTT AUC compared to vehicle” and the fasting plasma insulin (db/db mice [4]; prior to glucose challenge, 3 days after the first dosing cycle) was “equivalent levels of fasting plasma insulin”.
